The test system of test [1] is MCF-7 cells. The test is described as follows: Immunofluorescence confocal microscopy of Omi in MCF-7 cells. As to conditions: TRAIL 1 μg/ml; untreated cells mostly punctate and perinuclear. It counts as cell-based.
Another test addresses T1, cIAP2 (Homo sapiens, UniProt Q13489).
T1 construct: made in house; host or cells: in vitro translation (cell-free)
The test is described as follows: In vitro interaction of immobilized His6-tagged protein with 35S-labeled cIAP2. As to conditions: immobilized on Talon-affinity resin; in vitro-translated 35S-labeled cIAP2. It counts as binding. The protocol: (§1) FIG. 8 is a scanned image of an autoradiogram representing SDS-PAGE analysis of interaction of XIAP, cIAP1, and cIAP2 with mature Omi and Smac. Immobilized C-terminal His6-tagged mature Omi or Smac, or GST protein was incubated with in vitro-translated ^35S-labeled XIAP (first panel), cIAP1 (second panel), or cIAP2 (third panel). The fourth panel is a scanned image of a Coomassie stained gel of the immobilized proteins.
(§2) C-terminal His6-tagged mature Omi or Smac, or a GST protein were immobilized onto Talon-affinity resin. The bound resins were incubated with in vitro-translated ^35S-labeled XIAP (first panel), cIAP1 (second panel) or cIAP2 (third panel), washed extensively, and then analyzed by SDS polyacrylamide gel electrophoresis and autoradiography. GST was used as a negative control (second lane of each panel). The fourth panel, represents a scanned image of a Coomassie stained gel of the immobilized proteins. […] The in vitro assays were performed as described in Srinivasula, S. M. et al., J Biol Chem 275:36152-36157, 2000.

The target in another test is T2, endogenous XIAP (Homo sapiens, UniProt P98170).
T2 construct: endogenous in cells; host or cells: 293T cells
In words: Co-immunoprecipitation with endogenous XIAP in transfected 293T cells. Type of test: cell-based. To be noted: 293T cells transfected with C-terminal Flag-tagged Omi precursors, XIAP western blot. From the text:
FIG. 9 is a scanned image of a blot representing western blot analysis using an XIAP monoclonal antibody (upper panel) or Flag antibody (middle panel) of 293T cells transfected with constructs encoding C-terminal Flag-tagged Omi wild type or mutant precursors and immunoprecipitated with Flag antibody. The lower panel is a scanned image of a blot representing total extracts probed with the XIAP antibody. Arrows indicate IgG bands.
(In general: In western blotting, separated proteins are transferred to a membrane and probed.)

Test [2] addresses T3, GST-BIR3 fusion protein (BIR3 domain of human XIAP) (Homo sapiens, UniProt P98170).
T3 construct: Omi associates directly with the BIR3 domain of XIAP
In words: Interaction of purified recombinant proteins with GST-BIR3 fusion protein (SDS-PAGE, Coomassie). Type of test: binding. As to conditions: purified C-terminal His6-tagged recombinant protein; wild type GST-BIR3. From the text: (§3) FIGS. 7A and 7B are scanned images of Coomassie stained gels representing SDS-PAGE analysis of purified C-terminal His6-tagged recombinant wild type mature Omi (WT), Omi-ΔAVPS, Omi-S306A, and mature Smac (7A) and recombinant Omi and Smac proteins with GST-BIR1, GST-BIR2, GST-BIR3, or GST-BIR3-E314S fusion proteins (7B).
(§4) To determine whether a recombinant Omi lacking the first 133 residues (mature Omi) can interact with the GST-BIR3 fusion protein, this protein was expressed with a C-terminal His6 tag in bacteria and purified to apparent homogeneity (see FIG. 7B). […] FIGS. 7A and 7B show scanned images of Coomassie stained gels representing SDS-PAGE analysis of purified C-terminal His6-tagged recombinant wild type mature Omi (WT), Omi-ΔAVPS, Omi-S306A, and mature Smac (FIG. 7A) and recombinant Omi and Smac proteins with GST-BIR1, 2, GST-BIR3 or GST-BIR3-E314S fusion proteins (FIG. 7B).

In a further test the target is T4, cIAP1 (Homo sapiens, UniProt Q13490).
T4 construct: made in house; host or cells: in vitro translation (cell-free)
In words: In vitro interaction of immobilized His6-tagged protein with 35S-labeled cIAP1. It counts as binding. As to conditions: immobilized on Talon-affinity resin; in vitro-translated 35S-labeled cIAP1. The protocol: as §1, §2

Test [3] concerns the target T5, caspase-9 interaction with XIAP (procaspase-3 activation) (Homo sapiens, UniProt P98170).
T5 construct: caspase-9: endogenous in 293T/HEK293 S100 extract
In words: Procaspase-3 activation in XIAP-containing S100 extracts stimulated with cytochrome c and dATP. It counts as biochemical. To be noted: S100 extracts with purified XIAP, cytochrome c plus dATP; 10, 50 or 300 ng protein. The protocol: FIG. 17 is a scanned image of an autoradiogram, representing SDS-PAGE analysis of ^35S-labeled procaspase-3 following stimulation of 293T S100 extracts (20μg) mixed with purified XIAP (50 ng) with cytochrome c (0.5 μg) plus dATP (1 mM), in the presence of increasing amounts (10, 50, or 300 ng, respectively) of purified mature WT Omi, Omi-ΔAVPS, Omi-S306A, or mature Smac in 10 μl reaction volume. In the fifth lane, S100 extracts were incubated with. 300 ng of WT Omi without XIAP.
Next, it was determined whether Omi, like Smac, promotes caspase-9 activity in HEK293 S100 extracts in the presence of XIAP. To measure the caspase-9 activity in these extracts, ^35S-labeled procaspase-3 was added to the S100 extracts and stimulated the extracts with cytochrome c and dATP. […] These observations indicate that Omi, like Smac, is able to disrupt the interaction of caspase-9 with XIAP in the S100 extracts to promote procaspase-3 activation.

The test system of test [4] is GST-BIR1, 2 fusion protein. The test is described as follows: Interaction of purified recombinant proteins with GST-BIR1, 2 fusion protein. It counts as binding, human. To be noted: purified C-terminal His6-tagged recombinant protein.
Text: as §3, §4

Another test has as its target T6, GST-BIR3-E314S mutant (Homo sapiens, UniProt P98170, E314S).
T6 construct: Omi associates directly with the BIR3 domain of XIAP
In words: Interaction of purified recombinant proteins with GST-BIR3-E314S mutant. As to conditions: purified C-terminal His6-tagged recombinant protein. It counts as binding.
Text: as §3
To confirm that Omi associates directly with the BIR3 domain of XIAP but not with the Smac protein, Smac was depleted from the 293 extracts using a Smac monoclonal antibody. Specifically, 293 cellular extracts were either left untreated (undepleted lane of FIG. 4) or depleted with a Smac antibody (lane depleted of FIG. 4). The undepleted and depleted extracts were incubated with the GST-BIR3 protein and the bound proteins were eluted as above. The eluates were then analyzed by far-western blotting with ^35S-XIAP and by western blotting with the Smac antibody as described above (see FIG. 4, left and right panels, respectively). […] The last lane of each panel in FIG. 4 represents the 293 cellular extracts that were bound to the E314S mutant GST-BIR3 fusion protein. […] The asterisk in FIG. 4 indicates non-specific bands and the arrow indicates the IgG band. […]

Test [5] relates to MCF-7 cells. The test is described as follows: TRAIL-induced apoptosis of MCF-7 cells transfected with GFP-IETD-Omi constructs. It counts as cell-based. To be noted: TRAIL for 16 hours, 24 hours following transfection; versus GFP transfected control cells. The protocol: FIG. 20 provides schematic diagrams of the Omi-GFP and GFP-IETD-Omi constructs used to assay the ability of Omi to induce apoptosis or to enhance apoptosis by other stimuli.
FIG. 25 is a bar graphic representation of the percentages of the determined round apoptotic MCF-7 cells that were left untreated (−) or treated with TRAIL (+) for 16 hours 24 hours following transfection with the indicated expression constructs.
(§5) Next, the contribution of the IAP binding activity of Omi to its proapoptotic activity was tested. The MTS of Omi was replaced with a GFP-IETD sequence and mutated at its active site Ser306 to Ala (FIG. 20, GFP-IETD-AVP). Of note, the presence of the IETD sequence between GFP and Omi-S/A allowed caspase-dependent cleavage at the IETD site after the Asp residue and release of mature Omi-S/A in the cytosol of the transfected 293 and MCF-7 cells (FIG. 23). […] Taken together, Omi not only can induce apoptosis through its serine protease activity but also via its ability to bind and neutralize IAPs.

Another test addresses T7, XIAP-BIR3 (Homo sapiens, UniProt P98170).
T7 construct: Omi associates directly with the BIR3 domain of XIAP
In words: GST-BIR3 precipitation of extracts of transfected 293T cells. Type of test: binding. To be noted: 24 hours after transfection. The protocol: FIG. 24 is a scanned image of an immunoblot with Flag-HRP antibody of 293T cells extracts precipitated with GST-BIR3 24 hours after transfection with the indicated expression constructs extracts.
as §5

T5 sequence (P98170 whole entry): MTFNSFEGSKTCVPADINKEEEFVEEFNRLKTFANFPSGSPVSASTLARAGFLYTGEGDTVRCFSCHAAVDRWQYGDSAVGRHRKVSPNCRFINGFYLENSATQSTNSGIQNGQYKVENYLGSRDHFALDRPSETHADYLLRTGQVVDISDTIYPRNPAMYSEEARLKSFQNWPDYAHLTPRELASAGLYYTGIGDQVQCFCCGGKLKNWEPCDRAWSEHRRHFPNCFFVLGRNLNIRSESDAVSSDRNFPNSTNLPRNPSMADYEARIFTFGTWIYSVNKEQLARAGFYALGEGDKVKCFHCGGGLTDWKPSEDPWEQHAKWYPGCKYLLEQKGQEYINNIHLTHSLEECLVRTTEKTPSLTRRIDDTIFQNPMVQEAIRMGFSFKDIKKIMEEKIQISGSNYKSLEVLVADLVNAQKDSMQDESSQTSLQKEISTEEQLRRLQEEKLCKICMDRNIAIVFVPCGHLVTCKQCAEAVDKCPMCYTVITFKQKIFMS
T2 sequence (P98170 whole entry): as above
T4 sequence (Q13490 whole entry, species assumed): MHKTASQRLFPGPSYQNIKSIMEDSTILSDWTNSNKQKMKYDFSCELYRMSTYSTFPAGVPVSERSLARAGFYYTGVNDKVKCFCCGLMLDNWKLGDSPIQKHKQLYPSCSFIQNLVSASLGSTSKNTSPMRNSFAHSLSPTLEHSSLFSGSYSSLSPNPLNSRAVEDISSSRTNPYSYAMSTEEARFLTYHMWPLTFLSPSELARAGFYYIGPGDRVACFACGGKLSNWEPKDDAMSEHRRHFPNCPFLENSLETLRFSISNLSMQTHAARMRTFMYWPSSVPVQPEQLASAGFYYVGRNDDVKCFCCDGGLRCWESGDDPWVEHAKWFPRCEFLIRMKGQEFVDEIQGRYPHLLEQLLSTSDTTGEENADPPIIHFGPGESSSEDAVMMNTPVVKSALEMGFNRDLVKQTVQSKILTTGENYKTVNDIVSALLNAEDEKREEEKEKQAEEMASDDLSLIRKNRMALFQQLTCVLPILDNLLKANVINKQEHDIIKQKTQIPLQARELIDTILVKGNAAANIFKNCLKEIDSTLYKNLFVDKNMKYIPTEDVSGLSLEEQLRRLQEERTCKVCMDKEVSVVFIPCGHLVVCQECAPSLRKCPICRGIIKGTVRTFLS
GST-BIR1, 2 fusion protein, sequence (P98170 124-240 limits assumed): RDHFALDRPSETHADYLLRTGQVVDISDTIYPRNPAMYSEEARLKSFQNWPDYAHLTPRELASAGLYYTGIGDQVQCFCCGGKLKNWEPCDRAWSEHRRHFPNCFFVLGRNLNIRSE
T1 sequence (Q13489 whole entry, species assumed): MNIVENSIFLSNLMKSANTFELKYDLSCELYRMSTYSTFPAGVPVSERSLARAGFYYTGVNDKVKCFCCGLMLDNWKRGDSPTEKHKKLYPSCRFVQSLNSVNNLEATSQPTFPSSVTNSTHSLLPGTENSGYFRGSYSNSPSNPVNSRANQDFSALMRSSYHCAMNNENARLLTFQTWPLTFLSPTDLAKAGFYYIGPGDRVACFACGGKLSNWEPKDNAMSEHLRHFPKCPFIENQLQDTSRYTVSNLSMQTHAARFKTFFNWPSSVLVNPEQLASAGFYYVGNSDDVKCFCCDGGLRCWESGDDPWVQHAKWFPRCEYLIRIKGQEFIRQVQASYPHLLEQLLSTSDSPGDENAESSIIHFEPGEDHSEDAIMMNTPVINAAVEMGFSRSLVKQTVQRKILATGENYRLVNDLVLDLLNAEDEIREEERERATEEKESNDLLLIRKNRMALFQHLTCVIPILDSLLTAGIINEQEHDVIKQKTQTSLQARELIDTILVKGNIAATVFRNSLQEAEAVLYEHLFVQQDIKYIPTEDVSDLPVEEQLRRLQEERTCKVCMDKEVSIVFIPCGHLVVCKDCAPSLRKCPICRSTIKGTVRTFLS
T6 sequence (P98170 238-358 E314S limits assumed): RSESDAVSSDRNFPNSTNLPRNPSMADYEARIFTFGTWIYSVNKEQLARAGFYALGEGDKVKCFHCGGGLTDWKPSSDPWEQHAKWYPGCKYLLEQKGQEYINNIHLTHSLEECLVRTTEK
T3 sequence (P98170 238-358 limits assumed): as the sequence (P98170 238-358 E314S limits assumed) above, with S77E counted along it
T7 sequence (P98170 238-358 limits assumed): as the sequence (P98170 238-358 E314S limits assumed) above, with S77E counted along it

B1: TRAIL: apoptotic stimulus acting by TRAIL-receptor ligation (protein, UniProt P50591 1-281, looked up)
Tumor necrosis factor ligand …: MAMMEVQGGPSLGQTCVLIVIFTVLLQSLCVAVTYVYFTNELKQMQDKYSKSGIACFLKEDDSYWDPNDEESMNSPCWQVKWQLRQLVRKMILRTSEETISTVQEKQQNISPLVRERGPQRVAAHITGTRGRSNTLSSPNSKNEKALGRKINSWESSRSGHSFLSNLHLRNGELVIHEKGFYYIYSQTYFRFQEEIKENTKNDKQMVQYIYKYTSYPDPILLMKSARNSCWSKDAEYGLYSIYQGGIFELKENDRIFVSVTNEHLIDMDHEASFFGAFLVG
Turning to B1, the “immunofluorescence staining pattern of Omi” value in the test on MCF-7 cells [1] is on record as “showed diffused immunofluorescence staining of Omi”.

B2: mature Omi: Omi polypeptide comprising residues 134-458 of SEQ ID NO:1; recombinant with C-terminal His6 tag (protein, listed as Homo sapiens)
chain: AVPSPPPASPRSQYNFIADVVEKTAPAVVYIEILDRHPFLGREVPISNGSGFVVAADGLIVTNAHVVADRRRVRVRLLSGDTYEAVVTAVDPVADIATLRIQTKEPLPTLPLGRSADVRQGEFVVAMGSPFALQNTITSGIVSSAQRPARDLGLPQTNVEYIQTDAAIDFGNSGGPLVNLDGEVIGVNTMKVTAGISFAIPSDRLREFLHRGEKKNSSSGISGSQRRYIGVMMLTLSPSILAELQLREPSFPDVQHGVLIHKVILGSPAHRAGLRPGDVILAIGEQMVQNAEDVYEAVRTQSQLAVQIRRGRETLTLYVTPEVTE
modifications: C-terminal His6 tag
Consider B2, for which, in the test with cIAP2, the “interaction with cIAP2” value is “found to also interact with cIAP1 and cIAP2”. Moreover, the “interaction with endogenous XIAP in vivo” value with endogenous XIAP is recorded as “can also interact with endogenous XIAP in vivo”. Moreover, in test [2], the “interaction with GST-BIR3 fusion protein” value is “able to interact equally with the wild type GST-BIR3 protein”. Also, the “interaction with cIAP1” value in the test with cIAP1 was “found to also interact with cIAP1”. Further, the “promotion of procaspase-3 activation” value in [3] is recorded as “able to promote procaspase-3 activation in the XIAP-containing S100 extracts almost to the same extent as Smac”. The “interaction with GST-BIR1, 2 fusion protein” value in test [4] is recorded as “able to interact with the GST-BIR1, 2 fusion protein”. Further, the “interaction with GST-BIR3-E314S mutant” value with GST-BIR3-E314S mutant is listed as “not with the GST-BIR3-E314S mutant”.

B3: GFP-IETD-SSA: GFP-IETD-Omi-S/A with the AVPS motif mutated to SSAS motif (protein)
chain: SSASPPPASPRSQYNFIADVVEKTAPAVVYIEILDRHPFLGREVPISNGSGFVVAADGLIVTNAHVVADRRRVRVRLLSGDTYEAVVTAVDPVADIATLRIQTKEPLPTLPLGRSADVRQGEFVVAMGSPFALQNTITSGIVSSAQRPARDLGLPQTNVEYIQTDAAIDFGNAGGPLVNLDGEVIGVNTMKVTAGISFAIPSDRLREFLHRGEKKNSSSGISGSQRRYIGVMMLTLSPSILAELQLREPSFPDVQHGVLIHKVILGSPAHRAGLRPGDVILAIGEQMVQNAEDVYEAVRTQSQLAVQIRRGRETLTLYVTPEVTE
Take B3: the “enhancement of TRAIL-induced apoptosis” value in the test on MCF-7 cells [5] was “abolished the apoptotic enhancement activity”. Further, the “binding to XIAP-BIR3 (GST-BIR3)” value with XIAP-BIR3 was “abolished the apoptotic enhancement activity of Omi-S/A and the ability to bind to BIR3”.

B4: GFP-IETD-AVP: Omi with MTS replaced by a GFP-IETD sequence and active site Ser306 mutated to Ala (protein)
chain: AVPSPPPASPRSQYNFIADVVEKTAPAVVYIEILDRHPFLGREVPISNGSGFVVAADGLIVTNAHVVADRRRVRVRLLSGDTYEAVVTAVDPVADIATLRIQTKEPLPTLPLGRSADVRQGEFVVAMGSPFALQNTITSGIVSSAQRPARDLGLPQTNVEYIQTDAAIDFGNAGGPLVNLDGEVIGVNTMKVTAGISFAIPSDRLREFLHRGEKKNSSSGISGSQRRYIGVMMLTLSPSILAELQLREPSFPDVQHGVLIHKVILGSPAHRAGLRPGDVILAIGEQMVQNAEDVYEAVRTQSQLAVQIRRGRETLTLYVTPEVTE
With B4, the “enhancement of TRAIL-induced apoptosis” value with MCF-7 cells [5] is listed as “enhanced TRAIL-induced apoptosis in these cells several folds above the GFP transfected control cells”.

The values above are taken from patent US20030073629A1, “Omi and domains thereof that disrupt IAP-caspase interaction” (priority 2001, published 2003).
